Patent US20230272029A1, “CO-AGONISTS AT GLP-1 AND GIP RECEPTORS SUITABLE FOR ORAL DELIVERY” (Novo Nordisk A/S, priority 2020, published 2023)
Starred links: 1 amine or outer side, 2 acyl side, 3 side chain; linkers in the order of their positions; H or OH if unused. Non-standard residues stand in square brackets, D forms with d. Groups on a side chain read outwards from the residue. No end group written: not given here. *: point of attachment. C20 diacid = O=C(O)CCCCCCCCCCCCCCCCCCC(=O)*; C18 diacid = O=C(O)CCCCCCCCCCCCCCCCC(=O)*; γGlu = O=C(O)[C@H](CCC(=O)[*:2])N[*:1]; εLys = N[C@@H](CCCCN[*:1])C(=O)[*:2]; Aib = CC(C)(N)C(=O)O

How the values were obtained:
human GIP receptor = target: T1, human GIP receptor (human, UniProt P48546 22-466); assay: cell-based or functional assay
T1 sequence (looked up): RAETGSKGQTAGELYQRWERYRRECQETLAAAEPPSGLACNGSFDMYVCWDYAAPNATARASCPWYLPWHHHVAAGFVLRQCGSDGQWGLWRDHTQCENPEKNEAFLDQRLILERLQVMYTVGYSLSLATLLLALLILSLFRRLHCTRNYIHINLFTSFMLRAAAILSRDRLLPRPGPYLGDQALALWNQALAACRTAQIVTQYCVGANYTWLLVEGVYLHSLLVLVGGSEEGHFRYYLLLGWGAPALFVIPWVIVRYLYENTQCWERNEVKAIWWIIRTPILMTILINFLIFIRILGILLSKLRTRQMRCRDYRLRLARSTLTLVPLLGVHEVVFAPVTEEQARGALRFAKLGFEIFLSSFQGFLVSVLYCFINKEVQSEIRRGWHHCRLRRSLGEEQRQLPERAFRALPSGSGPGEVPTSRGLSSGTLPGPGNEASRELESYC

human GLP-1 receptor = human GLP-1 receptor (human, UniProt P43220 24-463); assay: cell-based or functional assay

Row | Binder | hGIPR, CRE Luc 0% HSA EC50 (pM) (human GIP receptor) | hGIPR, CRE Luc 1% HSA EC50 (pM) (human GIP receptor) | hGLP-1R, CRE Luc 0% HSA EC50 (pM) (human GLP-1 receptor) | hGLP-1R, CRE Luc 1% HSA EC50 (pM) (human GLP-1 receptor)
1 | Y[Aib]EGTFTSDYSILLEK([εLys-εLys-γGlu-C18 diacid])QAAREFVNWLLAGGPSSGAPPPS-OH (N-terminus assumed; SMILES CC[C@H](C)[C@H](NC(=O)[C@H](CO)NC(=O)[C@H](Cc1ccc(O)cc1)NC(=O)[C@H](CC(=O)O)NC(=O)[C@H](CO)NC(=O)[C@@H](NC(=O)[C@H](Cc1ccccc1)NC(=O)[C@@H](NC(=O)CNC(=O)[C@H](CCC(=O)O)NC(=O)C(C)(C)NC(=O)[C@@H](N)Cc1ccc(O)cc1)[C@@H](C)O)[C@@H](C)O)C(=O)N[C@@H](CC(C)C)C(=O)N[C@@H](CC(C)C)C(=O)N[C@@H](CCC(=O)O)C(=O)N[C@@H](CCCCNC(=O)[C@@H](N)CCCCNC(=O)[C@@H](N)CCCCNC(=O)CC[C@H](NC(=O)CCCCCCCCCCCCCCCCC(=O)O)C(=O)O)C(=O)N[C@@H](CCC(N)=O)C(=O)N[C@@H](C)C(=O)N[C@@H](C)C(=O)N[C@@H](CCCNC(=N)N)C(=O)N[C@@H](CCC(=O)O)C(=O)N[C@@H](Cc1ccccc1)C(=O)N[C@H](C(=O)N[C@@H](CC(N)=O)C(=O)N[C@@H](Cc1c[nH]c2ccccc12)C(=O)N[C@@H](CC(C)C)C(=O)N[C@@H](CC(C)C)C(=O)N[C@@H](C)C(=O)NCC(=O)NCC(=O)N1CCC[C@H]1C(=O)N[C@@H](CO)C(=O)N[C@@H](CO)C(=O)NCC(=O)N[C@@H](C)C(=O)N1CCC[C@H]1C(=O)N1CCC[C@H]1C(=O)N1CCC[C@H]1C(=O)N[C@@H](CO)C(=O)O)C(C)C) [Compound No. 22] | 6.2 | 169 | 2.8 | 170
2 | Y[Aib]EGTFTSDYSILLEK([εLys-εLys-γGlu-C18 diacid])QAAREFIQWLLAGGPSSGAPPPS-OH (N-terminus assumed; SMILES CC[C@H](C)[C@H](NC(=O)[C@H](Cc1ccccc1)NC(=O)[C@H](CCC(=O)O)NC(=O)[C@H](CCCNC(=N)N)NC(=O)[C@H](C)NC(=O)[C@H](C)NC(=O)[C@H](CCC(N)=O)NC(=O)[C@H](CCCCNC(=O)[C@@H](N)CCCCNC(=O)[C@@H](N)CCCCNC(=O)CC[C@H](NC(=O)CCCCCCCCCCCCCCCCC(=O)O)C(=O)O)NC(=O)[C@H](CCC(=O)O)NC(=O)[C@H](CC(C)C)NC(=O)[C@H](CC(C)C)NC(=O)[C@@H](NC(=O)[C@H](CO)NC(=O)[C@H](Cc1ccc(O)cc1)NC(=O)[C@H](CC(=O)O)NC(=O)[C@H](CO)NC(=O)[C@@H](NC(=O)[C@H](Cc1ccccc1)NC(=O)[C@@H](NC(=O)CNC(=O)[C@H](CCC(=O)O)NC(=O)C(C)(C)NC(=O)[C@@H](N)Cc1ccc(O)cc1)[C@@H](C)O)[C@@H](C)O)[C@@H](C)CC)C(=O)N[C@@H](CCC(N)=O)C(=O)N[C@@H](Cc1c[nH]c2ccccc12)C(=O)N[C@@H](CC(C)C)C(=O)N[C@@H](CC(C)C)C(=O)N[C@@H](C)C(=O)NCC(=O)NCC(=O)N1CCC[C@H]1C(=O)N[C@@H](CO)C(=O)N[C@@H](CO)C(=O)NCC(=O)N[C@@H](C)C(=O)N1CCC[C@H]1C(=O)N1CCC[C@H]1C(=O)N1CCC[C@H]1C(=O)N[C@@H](CO)C(=O)O) [Compound No. 23] | 6.7 | 134 | 4.1 | 118
3 | Y[Aib]EGTFTSDYSIYLEK([εLys-εLys-γGlu-C18 diacid])QAAREFIEWLLAGGPSSGAPPPS-OH (N-terminus assumed; SMILES CC[C@H](C)[C@H](NC(=O)[C@H](Cc1ccccc1)NC(=O)[C@H](CCC(=O)O)NC(=O)[C@H](CCCNC(=N)N)NC(=O)[C@H](C)NC(=O)[C@H](C)NC(=O)[C@H](CCC(N)=O)NC(=O)[C@H](CCCCNC(=O)[C@@H](N)CCCCNC(=O)[C@@H](N)CCCCNC(=O)CC[C@H](NC(=O)CCCCCCCCCCCCCCCCC(=O)O)C(=O)O)NC(=O)[C@H](CCC(=O)O)NC(=O)[C@H](CC(C)C)NC(=O)[C@H](Cc1ccc(O)cc1)NC(=O)[C@@H](NC(=O)[C@H](CO)NC(=O)[C@H](Cc1ccc(O)cc1)NC(=O)[C@H](CC(=O)O)NC(=O)[C@H](CO)NC(=O)[C@@H](NC(=O)[C@H](Cc1ccccc1)NC(=O)[C@@H](NC(=O)CNC(=O)[C@H](CCC(=O)O)NC(=O)C(C)(C)NC(=O)[C@@H](N)Cc1ccc(O)cc1)[C@@H](C)O)[C@@H](C)O)[C@@H](C)CC)C(=O)N[C@@H](CCC(=O)O)C(=O)N[C@@H](Cc1c[nH]c2ccccc12)C(=O)N[C@@H](CC(C)C)C(=O)N[C@@H](CC(C)C)C(=O)N[C@@H](C)C(=O)NCC(=O)NCC(=O)N1CCC[C@H]1C(=O)N[C@@H](CO)C(=O)N[C@@H](CO)C(=O)NCC(=O)N[C@@H](C)C(=O)N1CCC[C@H]1C(=O)N1CCC[C@H]1C(=O)N1CCC[C@H]1C(=O)N[C@@H](CO)C(=O)O) [Compound No. 9] | – | – | 3.8 | 279
4 | Y[Aib]EGTFTSDYSILLEK([εLys-εLys-γGlu-C18 diacid])QAAEEFINWLLAGGPSSGAPPPS-OH (N-terminus assumed; SMILES CC[C@H](C)[C@H](NC(=O)[C@H](Cc1ccccc1)NC(=O)[C@H](CCC(=O)O)NC(=O)[C@H](CCC(=O)O)NC(=O)[C@H](C)NC(=O)[C@H](C)NC(=O)[C@H](CCC(N)=O)NC(=O)[C@H](CCCCNC(=O)[C@@H](N)CCCCNC(=O)[C@@H](N)CCCCNC(=O)CC[C@H](NC(=O)CCCCCCCCCCCCCCCCC(=O)O)C(=O)O)NC(=O)[C@H](CCC(=O)O)NC(=O)[C@H](CC(C)C)NC(=O)[C@H](CC(C)C)NC(=O)[C@@H](NC(=O)[C@H](CO)NC(=O)[C@H](Cc1ccc(O)cc1)NC(=O)[C@H](CC(=O)O)NC(=O)[C@H](CO)NC(=O)[C@@H](NC(=O)[C@H](Cc1ccccc1)NC(=O)[C@@H](NC(=O)CNC(=O)[C@H](CCC(=O)O)NC(=O)C(C)(C)NC(=O)[C@@H](N)Cc1ccc(O)cc1)[C@@H](C)O)[C@@H](C)O)[C@@H](C)CC)C(=O)N[C@@H](CC(N)=O)C(=O)N[C@@H](Cc1c[nH]c2ccccc12)C(=O)N[C@@H](CC(C)C)C(=O)N[C@@H](CC(C)C)C(=O)N[C@@H](C)C(=O)NCC(=O)NCC(=O)N1CCC[C@H]1C(=O)N[C@@H](CO)C(=O)N[C@@H](CO)C(=O)NCC(=O)N[C@@H](C)C(=O)N1CCC[C@H]1C(=O)N1CCC[C@H]1C(=O)N1CCC[C@H]1C(=O)N[C@@H](CO)C(=O)O) [Compound No. 25] | 7.2 | 263 | 15.5 | 740
5 | Y[Aib]EGTFTSDYSYYLEK([εLys-εLys-γGlu-C20 diacid])QAAQEFVNWLLAGGPSSGAPPPS-NH2 (N-terminus assumed; SMILES CC(C)C[C@H](NC(=O)[C@H](CC(C)C)NC(=O)[C@H](Cc1c[nH]c2ccccc12)NC(=O)[C@H](CC(N)=O)NC(=O)[C@@H](NC(=O)[C@H](Cc1ccccc1)NC(=O)[C@H](CCC(=O)O)NC(=O)[C@H](CCC(N)=O)NC(=O)[C@H](C)NC(=O)[C@H](C)NC(=O)[C@H](CCC(N)=O)NC(=O)[C@H](CCCCNC(=O)[C@@H](N)CCCCNC(=O)[C@@H](N)CCCCNC(=O)CC[C@H](NC(=O)CCCCCCCCCCCCCCCCCCC(=O)O)C(=O)O)NC(=O)[C@H](CCC(=O)O)NC(=O)[C@H](CC(C)C)NC(=O)[C@H](Cc1ccc(O)cc1)NC(=O)[C@H](Cc1ccc(O)cc1)NC(=O)[C@H](CO)NC(=O)[C@H](Cc1ccc(O)cc1)NC(=O)[C@H](CC(=O)O)NC(=O)[C@H](CO)NC(=O)[C@@H](NC(=O)[C@H](Cc1ccccc1)NC(=O)[C@@H](NC(=O)CNC(=O)[C@H](CCC(=O)O)NC(=O)C(C)(C)NC(=O)[C@@H](N)Cc1ccc(O)cc1)[C@@H](C)O)[C@@H](C)O)C(C)C)C(=O)N[C@@H](C)C(=O)NCC(=O)NCC(=O)N1CCC[C@H]1C(=O)N[C@@H](CO)C(=O)N[C@@H](CO)C(=O)NCC(=O)N[C@@H](C)C(=O)N1CCC[C@H]1C(=O)N1CCC[C@H]1C(=O)N1CCC[C@H]1C(=O)N[C@@H](CO)C(N)=O) [Compound No. 2] | 3.8 | 275 | 6 | 900
6 | Y[Aib]EGTFTSDYSILLEK([εLys-εLys-γGlu-C18 diacid])QAAQEFINWLLAGGPSSGAPPPS-OH (N-terminus assumed; SMILES CC[C@H](C)[C@H](NC(=O)[C@H](Cc1ccccc1)NC(=O)[C@H](CCC(=O)O)NC(=O)[C@H](CCC(N)=O)NC(=O)[C@H](C)NC(=O)[C@H](C)NC(=O)[C@H](CCC(N)=O)NC(=O)[C@H](CCCCNC(=O)[C@@H](N)CCCCNC(=O)[C@@H](N)CCCCNC(=O)CC[C@H](NC(=O)CCCCCCCCCCCCCCCCC(=O)O)C(=O)O)NC(=O)[C@H](CCC(=O)O)NC(=O)[C@H](CC(C)C)NC(=O)[C@H](CC(C)C)NC(=O)[C@@H](NC(=O)[C@H](CO)NC(=O)[C@H](Cc1ccc(O)cc1)NC(=O)[C@H](CC(=O)O)NC(=O)[C@H](CO)NC(=O)[C@@H](NC(=O)[C@H](Cc1ccccc1)NC(=O)[C@@H](NC(=O)CNC(=O)[C@H](CCC(=O)O)NC(=O)C(C)(C)NC(=O)[C@@H](N)Cc1ccc(O)cc1)[C@@H](C)O)[C@@H](C)O)[C@@H](C)CC)C(=O)N[C@@H](CC(N)=O)C(=O)N[C@@H](Cc1c[nH]c2ccccc12)C(=O)N[C@@H](CC(C)C)C(=O)N[C@@H](CC(C)C)C(=O)N[C@@H](C)C(=O)NCC(=O)NCC(=O)N1CCC[C@H]1C(=O)N[C@@H](CO)C(=O)N[C@@H](CO)C(=O)NCC(=O)N[C@@H](C)C(=O)N1CCC[C@H]1C(=O)N1CCC[C@H]1C(=O)N1CCC[C@H]1C(=O)N[C@@H](CO)C(=O)O) [Compound No. 24] | 3.9 | 115 | 12.1 | 490
